± gives the uncertainty stated by the source.

Sequences and labels used below:
B1: Zinc finger MYM-type protein 3, residues 589 to 668; numbered along this chain, Q14202 (parent)
chain: LSCHYCHSLFSGKPEVLDWQDQVFQFCCRDCCEDFKRLRGVVSQCEHCRQEKLLHEKLRFSGVEKSFCSEGCVLLYKQDF

Variants of B1 are the subject of this data set. Nature of the data set: abundance fitness (aPCA) (normalised: wild type 0, dead -1); higher = more abundant; growth selection in yeast, the domain comes from the species named. The note with it: Homo sapiens.
Regarding LSQHYCHSLFSGKPEVLDWQDQVFQFCCRDCCEDFKRLRGVVSQCEHCRQEKLLHEKLRFSGVEKSFCSEGCVLLYKQDF, the abundance fitness is -0.998 ± 0.1.

Turning to LSCHYCHSLFSGKPEVLDWQDQVFQFCCRDCCEDFKRLRGVVSLCEHCRQEKLLHEKLRFSGVEKSFCSEGCVLLYKQDF, the abundance fitness came to 0.854 ± 0.079.

LSCHYCHSLFSGKPEVLDWQDQVFQFCCRDCCEDMKRLRGVVSQCEHCRQEKLLHEKLRFSGVEKSFCSEGCVLLYKQDF: the abundance fitness was -0.071 ± 0.047.

Turning to LSCHYCHSLFSGKPEVLDWQDQSFQFCCRDCCEDFKRLRGVVSQCEHCRQEKLLHEKLRFSGVEKSFCSEGCVLLYKQDF, the abundance fitness is 0.287 ± 0.047.

Turning to LSCHYCHSLFSGKPEVLDWQDQMFQFCCRDCCEDFKRLRGVVSQCEHCRQEKLLHEKLRFSGVEKSFCSEGCVLLYKQDF, the abundance fitness turned out to be 0.338 ± 0.047.

LSCHYCHSLFSGKTEVLDWQDQVFQFCCRDCCEDFKRLRGVVSQCEHCRQEKLLHEKLRFSGVEKSFCSEGCVLLYKQDF: the abundance fitness was -0.381 ± 0.079.

In the case of LSCHYCHSLFSGKFEVLDWQDQVFQFCCRDCCEDFKRLRGVVSQCEHCRQEKLLHEKLRFSGVEKSFCSEGCVLLYKQDF, the abundance fitness was -0.371 ± 0.21.

On to LSCHYCASLFSGKPEVLDWQDQVFQFCCRDCCEDFKRLRGVVSQCEHCRQEKLLHEKLRFSGVEKSFCSEGCVLLYKQDF, for which the abundance fitness turned out to be 0.154 ± 0.042.

Regarding LSCHYCHSLFSGKPEVLDWQDQVFQFCCRDCCEDFKRLRGVVSQCGHCRQEKLLHEKLRFSGVEKSFCSEGCVLLYKQDF, the abundance fitness stood at 0.085 ± 0.093.

Consider LSCHYCHSLFSGKPEVLDWQDQVFQFCCRDCCEDFKRLRGVVSQCEHCRQEKLLHEKLRFSGVEKSFCSEGCVLLMKQDF, for which the abundance fitness is -0.524 ± 0.34.

With LSCHYCHSLFSGKPEVLDWQDQVFQFCCRDCCEDFKRLRGVVSQCEHCRQESLLHEKLRFSGVEKSFCSEGCVLLYKQDF, the abundance fitness is -0.371 ± 0.16.

With LSCHYCHSLFSGKPEVLDWQDQVFQFCCRDCCEDFKRLRGVVSQCEHCRQEGLLHEKLRFSGVEKSFCSEGCVLLYKQDF, the abundance fitness was -0.07 ± 0.078.

Take LSCFYCHSLFSGKPEVLDWQDQVFQFCCRDCCEDFKRLRGVVSQCEHCRQEKLLHEKLRFSGVEKSFCSEGCVLLYKQDF: the abundance fitness was 0.128 ± 0.072.

On to LSCTYCHSLFSGKPEVLDWQDQVFQFCCRDCCEDFKRLRGVVSQCEHCRQEKLLHEKLRFSGVEKSFCSEGCVLLYKQDF, for which the abundance fitness stood at 0.19 ± 0.043.

Consider LSCKYCHSLFSGKPEVLDWQDQVFQFCCRDCCEDFKRLRGVVSQCEHCRQEKLLHEKLRFSGVEKSFCSEGCVLLYKQDF, for which the abundance fitness was 0.179 ± 0.051.

Consider LSCHYCHSLFSGKPEVLDWQDQVFQFCCRDCCEDFKRLRGVVSQCEHCRQEKLLHEKLRFSGVEKSPCSEGCVLLYKQDF, for which the abundance fitness is -0.47 ± 0.19.

As for LSCHYCHSLFSGKPEVLDWQDQVFQFCCRDCCEDFKRLRGVVSQCEHCRQEKLLHEKCRFSGVEKSFCSEGCVLLYKQDF, the abundance fitness was -0.179 ± 0.28.

Consider LSCHYCHSLFSGKPEVNDWQDQVFQFCCRDCCEDFKRLRGVVSQCEHCRQEKLLHEKLRFSGVEKSFCSEGCVLLYKQDF, for which the abundance fitness is -0.53 ± 0.19.

In the case of LMCHYCHSLFSGKPEVLDWQDQVFQFCCRDCCEDFKRLRGVVSQCEHCRQEKLLHEKLRFSGVEKSFCSEGCVLLYKQDF, the abundance fitness was determined as 0.243 ± 0.051.

As for LSCHYCHSLFSGEPEVLDWQDQVFQFCCRDCCEDFKRLRGVVSQCEHCRQEKLLHEKLRFSGVEKSFCSEGCVLLYKQDF, the abundance fitness was -0.001 ± 0.052.

As for LSCHYCHSLFSGVPEVLDWQDQVFQFCCRDCCEDFKRLRGVVSQCEHCRQEKLLHEKLRFSGVEKSFCSEGCVLLYKQDF, the abundance fitness is -0.169 ± 0.047.

As for LSCHYCHSLFSGYPEVLDWQDQVFQFCCRDCCEDFKRLRGVVSQCEHCRQEKLLHEKLRFSGVEKSFCSEGCVLLYKQDF, the abundance fitness is -0.389 ± 0.14.

For the variant LSCHYCHSLFSGKPEVLDWQDQVFQFCCRDCCEDFKRLRGVVSQCEHCRQEKLLHEKLRFSGVEKSFCSEGCVLLYKSDF, the abundance fitness was 0.069 ± 0.15.

As for LSCHYCHSLFSGKPEVLDWQDQVFQFCCRDCCEDFKRLAGVVSQCEHCRQEKLLHEKLRFSGVEKSFCSEGCVLLYKQDF, the abundance fitness is -0.417 ± 0.18.

For LSCHYCHSLFSGKPEVLDWQDQVFQFCCRDCCEDFKRLGGVVSQCEHCRQEKLLHEKLRFSGVEKSFCSEGCVLLYKQDF, the abundance fitness was determined as 0.424 ± 0.11.

Regarding LSCHYCHSLFSGKPEVLDWQDQVKQFCCRDCCEDFKRLRGVVSQCEHCRQEKLLHEKLRFSGVEKSFCSEGCVLLYKQDF, the abundance fitness amounted to 0.084 ± 0.045.

On to LSCHYCHSLFSGKPEVLDWQDQVQQFCCRDCCEDFKRLRGVVSQCEHCRQEKLLHEKLRFSGVEKSFCSEGCVLLYKQDF, for which the abundance fitness is -0.038 ± 0.046.

For the variant LSCHYCHSLFSGKPEVLDWQDQVFQFCCRDCVEDFKRLRGVVSQCEHCRQEKLLHEKLRFSGVEKSFCSEGCVLLYKQDF, the abundance fitness turned out to be 0.038 ± 0.041.

LSCHYCHSLFSGKPEVLDWQDQVFQFCCRDCYEDFKRLRGVVSQCEHCRQEKLLHEKLRFSGVEKSFCSEGCVLLYKQDF: the abundance fitness stood at 0.067 ± 0.059.

LSCHYCHSLFSGKPEVLDEQDQVFQFCCRDCCEDFKRLRGVVSQCEHCRQEKLLHEKLRFSGVEKSFCSEGCVLLYKQDF: the abundance fitness turned out to be 0.201 ± 0.059.

Take LSCHYCHSLFSGKPEVLDRQDQVFQFCCRDCCEDFKRLRGVVSQCEHCRQEKLLHEKLRFSGVEKSFCSEGCVLLYKQDF: the abundance fitness was 0.157 ± 0.038.

For LSCHYCHSLFSGKPEVLDWQDQVFQFCCRDCCEDFKRLRGVVSQCEHCRQEKLLHEKLRFQGVEKSFCSEGCVLLYKQDF, the abundance fitness was -0.12 ± 0.17.

Regarding LSCHYCHSLFSGKPEVLDWQDQVFQFCCRDCCEDFKRLRGVVSQCEHCEQEKLLHEKLRFSGVEKSFCSEGCVLLYKQDF, the abundance fitness is -0.361 ± 0.18.

In the case of LSCHYCHSLFPGKPEVLDWQDQVFQFCCRDCCEDFKRLRGVVSQCEHCRQEKLLHEKLRFSGVEKSFCSEGCVLLYKQDF, the abundance fitness is -0.454 ± 0.071.

The record behind these values is the Human Domainome abundance scans (Beltran et al. 2025).
